Reference: PMC6042391
Numbering of substitutions follows the chain as printed.

T1: tau peptide V1089–24
T1 sequence (peptide, phosphoserine at Ser422; biotin (position not stated)): SSTGSIDMVDSPQLATLA

B1: Fab-dmCBTAU-22.1 (Fab, V domains shown)
VH: QVQLVQSGAEVKKPGAPVKVSCETSGYRFSDYFVHWVRQAPGQGPEWIGRIRPNSGGTKYAQKFQGRVTMTRDMSMNTAYMELSGLRSDDTAVYYCVRGHCDGTTCSRAYWGQGTLVTVSS
VL: DVVMTQSPLSLPVTPGEPASISCRSSQSLLHRSGHKYLHWYLQRPGQSPQVLIYLGSNRASGVPDRFSGSGSGTDFTLKISRVEAEDVGLYYCMQTLQTPWTFGQGTKVEIK
B2: Fab-CBTAU-22.1 (Fab, V domains shown)
VH: B1 VH with F33N, R52S
VL: B1 VL

Target: T1, tau peptide V1089–24
Assay: BLI; biotinylated peptide V1089–24 (1 μg/ml) on streptavidin biosensors; 13 Fab concentrations in ForteBio's kinetics buffer; 600 s association, 600 s dissociation; steady state analysis

Row | Binder | Kd
1 | B1 | 240 nM
2 | B2 | 5600 nM
